From patent publication US20180360932A1 (OPKO BIOLOGICS, published 2018) come the findings set out here.

The target of series [1] is MOD-5000/TF complex (UniProt P08709). The series can be described thus: cell-based or functional assay.
In series [2] the target is MOD-5014/TF complex (UniProt P13726). The series can be described thus: cell-based or functional assay.
The target in series [3] is MOD-5014 (FVIIa-CTP3, activated Factor VII-CTP-CTP-CTP) (human) (UniProt P08709). The series can be described thus: cell-based or functional assay.
The target of series [4] is Recombinant human FVIIa (NovoSeven) (human) (UniProt P08709). The series can be described thus: cell-based or functional assay.
The target of series [5] is MOD-5000/TF complex (UniProt P08709).
For series [6], the target named is MOD-5014/TF complex (UniProt P13726).
The target of series [7] is MOD-5000/TF complex (UniProt P08709). The series can be described thus: FX activation kinetics of the FVIIa/TF complex (FVIIa 1 nM, TF 5 pM, FX 0-1500 nM, Pefachrome FXa).
Series [8] deals with MOD-5014/TF complex (UniProt P13726). The description is as above.
For series [9], the target named is Factor X (UniProt P00742). The series can be described thus: cell-based or functional assay.
Sequence of Factor X (P00742 41-488 limits assumed): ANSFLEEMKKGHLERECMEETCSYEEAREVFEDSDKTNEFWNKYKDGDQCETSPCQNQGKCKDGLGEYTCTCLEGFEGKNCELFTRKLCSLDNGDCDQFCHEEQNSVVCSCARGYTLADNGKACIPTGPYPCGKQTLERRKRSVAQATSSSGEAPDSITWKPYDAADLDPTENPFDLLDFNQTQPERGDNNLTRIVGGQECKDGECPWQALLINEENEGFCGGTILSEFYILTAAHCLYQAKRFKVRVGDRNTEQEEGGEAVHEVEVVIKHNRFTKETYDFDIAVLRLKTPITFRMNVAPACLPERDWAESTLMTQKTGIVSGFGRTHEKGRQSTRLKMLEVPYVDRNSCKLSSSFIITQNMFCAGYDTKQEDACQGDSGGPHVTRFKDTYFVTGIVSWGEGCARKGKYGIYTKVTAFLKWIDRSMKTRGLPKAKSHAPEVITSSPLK

Sequence of Factor X (FX) (chain): as the sequence (P00742 41-488 limits assumed) above

As for “Anti-thrombin (AT) (from UniProt P01008 33-464)”, the K (rate constant of the loss of FVIIa/TF activity with AT 1 uM and heparin 5 U/mL) in series [1] worked out at 0.354 Min·^1; in series [2] it was 0.217 Min·^1.

In the case of “Anti-thrombin III (AT III) (from UniProt P01008 33-464)”, the IC50 of anti-thrombin on FX activation (chromogenic), 0.7 ng/ml FVIIa, 1 U/µl heparin worked out at 49.6 µg/mL in series [3] and 65.7 µg/mL in series [4].

Turning to Factor X (FX), the Vmax (rate of FX activation by the FVIIa/TF complex as a function of FX concentration) in series [5] came out at 1.78 nM FXa/min; in series [6], 1.64 nM FXa/min. For the same substance, the Km in series [7] was 0.14 µM; in [8], 0.12 µM.

In series [9], “NovoSeven (commercial recombinant human FVIIa) (from UniProt P08709 61-212; P08709 213-466) (enzyme)” came in with an O.D, FX activation (chromogenic), rFVIIa 0.0320 ng/ml of 0.138 O.D; an O.D, FX activation (chromogenic), rFVIIa 0.160 ng/ml of 0.178 O.D; an O.D, FX activation (chromogenic), rFVIIa 0.80 ng/ml of 0.303 O.D; an O.D, FX activation (chromogenic), rFVIIa 4.00 ng/ml of 0.352 O.D. For the same substance, in series [9], the O.D, FX activation (chromogenic), rFVIIa 20.00 ng/ml amounted to 0.365 O.D and the O.D, FX activation (chromogenic), rFVIIa 100.00 ng/ml is 0.363 O.D.
